Experimental data as given in patent publication US20250034250A1 (published 2025).
Each block holds one binder with its values, some of them ahead of it.

Tests used:
[1] = biological target: T1, extracellular domain of CD33^ΔE2 with a 6-histidine-avidin tag (hsCD33_ΔE2-His-Avi) (human); experiment: Biacore SPR, purified antibody and corresponding soluble ectodomain
T1 construct: The Biacore text says only 'the corresponding soluble ectodomains'; also called soluble CD33^ΔE2 ectodomain; MDT000239
T1 chain: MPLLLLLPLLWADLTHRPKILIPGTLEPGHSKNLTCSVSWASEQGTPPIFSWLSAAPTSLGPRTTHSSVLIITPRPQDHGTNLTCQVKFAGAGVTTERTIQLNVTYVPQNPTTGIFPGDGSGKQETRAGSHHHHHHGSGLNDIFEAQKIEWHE
Source text: (§1) FIGS. 4A-4C illustrate the expression (FIGS. 4A, 4B) and characterization of two CD33^FL specific (8F5 and 5D12) and one CD33^ΔE2 specific (12B12) antibodies. Affinities for these antibodies (shown in FIG. 4C) were characterized by Biacore (Biacore, A&G Pharmaceutical, Inc., Columbia, MD) using purified antibodies and the corresponding soluble ectodomains.

[2] = biological target: T2, ΔE2 version of human CD33 (CD33^ΔE2) expressed on cells (human, UniProt P20138 1-364); experiment: flow cytometry on engineered REH cells
T2 construct: Expressed on engineered REH sublines; also called CD33ΔE2 isoform

[3] = biological target: T3, extracellular domain of CD33^FL with a 6-histidine-avidin tag (hsCD33-His-Avi) (human, UniProt P20138 18-256); experiment: Biacore SPR, purified antibody and corresponding soluble ectodomain
T3 construct: The Biacore text says only 'the corresponding soluble ectodomains'; it includes the native signal peptide and the His-Avi tag, and no limits are stated on it; also called soluble CD33^FL ectodomain; MDT000235
Source text: as §1

[4] = biological target: T2, ΔE2 version of human CD33 (CD33^ΔE2) …; experiment: flow cytometry on REH cells expressing CD33^ΔE2
Source text: FIG. 6 illustrates flow cytometry binding assay characterization of CD33^ΔE2 -specific CD33 antibodies. […] Antibodies specific for CD33^ΔE2 have not previously been described reliably in the literature. The herein-described CD33^ΔE2 specific antibodies will be useful, including for determining expression profiles of this isoform across healthy and diseased individuals. REH=human CD33^neg lymphoid cells.

[5] = biological target: T4, human full-length CD33 (CD33^FL) expressed on cells (human, UniProt P20138 18-364); experiment: flow cytometry on REH cells expressing CD33^FL
T4 construct: Expressed on engineered REH (or RS4;11) sublines
T4 sequence (P20138 18-364 limits assumed): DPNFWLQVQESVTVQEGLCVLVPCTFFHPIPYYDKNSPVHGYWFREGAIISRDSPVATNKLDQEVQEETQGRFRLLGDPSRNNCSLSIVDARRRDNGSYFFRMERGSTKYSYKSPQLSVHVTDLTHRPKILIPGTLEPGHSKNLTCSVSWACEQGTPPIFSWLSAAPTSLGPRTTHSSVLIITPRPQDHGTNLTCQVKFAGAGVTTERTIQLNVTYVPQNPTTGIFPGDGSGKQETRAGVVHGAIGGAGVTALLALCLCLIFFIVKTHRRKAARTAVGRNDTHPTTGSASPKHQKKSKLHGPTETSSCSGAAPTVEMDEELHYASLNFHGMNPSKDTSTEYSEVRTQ

[6] = biological target: T4, human full-length CD33 (CD33^FL) …; experiment: flow cytometry on REH cells, legend of FIG. 7
[7] = biological target: T3, extracellular domain of CD33^FL with a …; experiment: Biacore SPR, value quoted from FIG. 4C
Source text: as §1

[8] = biological target: T4, human full-length CD33 (CD33^FL) …; experiment: flow cytometry on REH subline expressing CD33^FL
[9] = biological target: T2, ΔE2 version of human CD33 (CD33^ΔE2) …; experiment: flow cytometry on REH subline expressing CD33^ΔE2

B1: anti-CD33 antibody 12B12 (antibody, V domains shown)
VH: EVQLQQSGTVLARPGASVKMSCKASGYTFTTYWMHWIKQSPGQGLEWIGAIYPGNSDTSYNQKFKGKAKLTAVTSASTAYMELSSLTNEDSAVYYCEIYDGYHFIYWGQGTTLTVSS
VL: DIVMTQAAFSNPVTLGTSASISCRSSQSLLHSNGITYLYWYLQKPGQSPQLLIYQMSNLASGVPDRFSSSGSGTDFTLRISRVEAEDVGVYYCAQNLELPPTFGGGTKLEIKR
notes: Mouse IgG2b
Kd [1]: 8 nM

B2: anti-CD33 antibody 11D5 (antibody, V domains shown)
VH: EVQFQQSETVLARPGTSVKLSCKASGYTFTSYWMHWLKQRPGQGLEWIGAIYCGNSDTSYNQKFKGKAKLTAVTSATTAYMELSSLTNEDSAVYYCKIYDGYHFDYWGQGTTLTVSS
VL: DIVMTQAAFSNPVTLGTSASISCRSNKSLLHSNGITYLYWYLQKPGQSPQLLIYQMSNLASGVPDRFSSSGSGTDFTLRISRVEAEDVGVYYCAQNLELPPTFGGGTKLEIKR
notes: Mouse IgG1
binding result [2]: binds

B3: anti-CD33 antibody 8F5 (antibody, mouse IgG2a, kappa, V domains shown)
VH: EVKLVESGGGLVQPGGSLKLSCAASGFTFSDFYMYWVRQTPEKRLEWVAFISNAGVTTYYPDTVEGRFTISRDNAKNTLYLQMSRLMSEDTAMYYCTKSDYDGAWFPYWGQGTLVTVSA
VL: DIVMSQSPSSLPVSVGEKVTLSCKSSQSLLYSRNQYNFLAWYQQRPGQSPKLLIYWASTRESGVPDRFTGSGSGTDFTLTISSVKAEDLAVYYCQQYYSYPYTFGGGTKLEIKR
notes: Mouse IgG2a
Kd [3]: 8 nM

B5: anti-CD33 antibody 11D11 (antibody, V domains shown)
VH: EVNLVESGGGLVQSGRSLRLSCATSGFTFSDFYMEWVRQAPGKGLEWIAASRNKANDYTTEYKASVKGRFIVSRDTSQSILYLQMNALRAEDTAIYYCTRDTGPMDYWGQGTSVTVSS
VL: DIQMTQTTSSLSASLGDRVTISCRASQDISNYLNWYQQKPDGTVKLLIYYTSRLHSGVPSRFSGSGSGTDYSLTISNLEQEDIATYFCQQGSTLPPTFGGGTKLEIKR
notes: Mouse IgG1
binding result [4]: binds

B8: anti-CD33 antibody 7E7 (antibody, V domains shown)
VH: QVTLKESGPGILQPSQTLSLTCSFSGFSLNSYGMGIGWIRQPSGKGLEWLAHIWWDDNKYYKPDLKSRLTVSKDTSKNQVFLKIANVDTTDTATYFCARDGGYSLFAYWGQGTLVTVSV
VL: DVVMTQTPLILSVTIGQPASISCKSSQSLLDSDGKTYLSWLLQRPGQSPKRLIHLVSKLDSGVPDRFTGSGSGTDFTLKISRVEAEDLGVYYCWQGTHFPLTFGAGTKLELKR
notes: Mouse IgG1
binding result [4]: binds
binding result [5]: no binding

The remaining lines, values ahead:

binding result [4]: binds
binding result [5]: binds
B4: anti-CD33 antibody 1H7 (antibody, V domains shown)
VH: QVQLQQSGAELVKPGASVKISCKASGYAFSNYWMNWVKQRPGKGLEWIGQINPGDGDTNYNGKFKGKATLTADKSSSTAYMQLSSLTSEDSAVYFCAREDRDYFDYWGQGTTLTVSS
VL: DIQMTQTTSSLSASLGDRVTISCRASQDINYYLNWYQQKPDGTVKLLIYYSSRLHSGVPSRFSGSGSGTDFSLTISNLEQEDIATYFCQQDDALPYTFGGGTKLEIKR
notes: Raised in mice; The entries include a secretion leader; also called CD33PAN antibody

binding result [4]: binds
binding result [6]: binds
B6: anti-CD33 antibody 5E10.7 (antibody, V domains shown)
VH: QVQLQQPGAEFVKPGASVKLSCKASGYTFTSYWMQWVKQRPGQGLEWIGEIDSSDSYTNYNQKFKGMATLTVDRSSSTAYMQLSSLTSEDSAVYYCARSRPYDWFPYWGQGTLVTVST
VL: DIKMTQSPSSIYASLGERVTITCKASQDIKSYLSWYQQKPRKSPKTLIYYATTLADGVPSRFSGSGSGQDFSLTISSLESDDTATYYCLHHSESPWTFGGGTKLEIKR
notes: Mouse IgG1

Kd [7]: 0.122 nM
Kd [3]: 0.112 nM
B7: anti-CD33 antibody 5D12 (antibody, V domains shown)
VH: QVQLQQSGAEVVKPGASVKISCRASGYAFSNYWMNWVKQRPGKGLEWIGQIYPGNFNTDYNGQFKGKATLTVDKSSNTAYMQLSSLTSEDSAVYFCARFFDFGAYFTLDYWGQGTSVTVSS
VL: DIKMTQSPSSIYASLGERVTINCKASQDIKSYLSWYQQKPWKSPKTLIYYATTLADGVPSRFSGSGSGQDYSLTISSLESDDTATYYCLHHGESPWTFGEGTKLEIKR
notes: Mouse IgG2a

binding result [8]: binds
binding result [9]: binds
B9: anti-CD33 antibody 2D5 (antibody, V domains shown)
VH: QVQLQQSGAELVRPGASVTLSCKASGYTFTDYDMHWVKQTPVHGLEWIGAIDPETGGTAYNQNFKGKAILTVDKSSRIAYMELRSLTSEDSAVFYCTSDYDYFGVWGTGTTVTVSS
VL: DIVMTQSQKFMSTSVGDRVSVTCKASQNVGTNVVWYHKKPGQSPKGLIYSASDRYSGVPDRFTGSGSGTDFTLTINNVQSEDLAEYFCQQYNIYPYTFGGGTKLEIKR
notes: the antibody was raised in mice
